assay: soluble on expression in E. coli; label from the status in PepcDB or PDB records

Sequence | soluble on expression in E. coli
MSEKETPSPVLDVKKEKNEETGIDEEKSSEDDCSKRSKVKSNPSKFSVNSILSPLESLVRVQQQLLKMAASKSGTPGTNAGVPGAFPYGPGRLPGNYFAGPFPGYSGAQPNWYNGNDPRFAAAAALLPCSIDPVRSAINHQFSMSSMSQRRKRRVLFSQAQVYELERRFKQAKYLTAPEREQLANSIRLTPTQVKIWFQNHRYKCKRQEKEKAMSGLGHSEDGSSPPPDNDDDDDKYSIEMDDKDDEEEEESEKPVLKPSGVFGLPYPPNAAAAAAAAAAAFNFPFAAQGPNPAYYMRW | not soluble
MGSDKIHHHHHHMLHGTTTKAADALDITQPAVSKILLQLTNKAGFPLFRNHRQRLIPTPEAHMLYAEVRRLFETVRGISQIAKEIRELRSGRLNISALPAFGSTLMPSIIASFTKQYPDVAITLDIRSSSTIIQRAGRNQLDIGVASEVNDETPSVVRRALIATPPVCVMPKGHPLSKLSVVQPDDFDGLNFVSLGVGDPMRKQLDELCEQRGVNRSLKVEAALSHSCINLVANGVGVTVVDRLSAWMAKDLPIEIRDFQPHLDINLSVYRPWGTIASSVADTFIEHLIQSTREYMNVVDRGIKALSEQ | not soluble
MSLDDESYEEEHKRMVLKIHQEFWDLPTNYQEKPLVFGSQAKNRYKTILPNEHSRVILEPERSPAAGGEPYINANYIKGPDYANNSYIATQGPLPNTIYEFWLMVYQNVVRTATVAGRSCASAGLEQKIVMLTNFVENGRQKCAIYFPQTADEWVAFGSGADIDVGEMLREKDTITASIAAAEQQPEGQEAVGGVCQPVTVRVPCASCFFLVHNVAVEQRNGYTVRTLNVIYGAKVSDADAPDGDGSRALFELTQFRAHHYWFPDWPDHRSPKDINVLLDLSLDVLGSNVVDTPRPESSNSLKGNQPGTPGLEEVMGAAQLAALSSSCTPTVLPIVHSSAGIGRTGCLIAILNGLRQLRLSVMAHQRKQQQLKQSQAQTGEAGQGELHGSEGRRKSTVQMDGATLLAPNAAVGRGGQREGSAVVRESGQVDILGIVCNLRLQRGGMVQNSEQYELIHRALCLYLEKLTQDGQEGHHHHHH | soluble
MKNKLFASALCAAALFTTNAMAKDQELYFYNWSEYIPSEVLEDFTKETGIKVIYSTYESNESMYAKLKTQGAGYDLVVPSTYFVSKMRKEGMLQEIDHSKLSHFKDLDPNYLNKPFDPGNKFSIPYIWGATGIGINTDMLDKKSLKNWGDLWDAKWAGQLMLMDDAREVFHIALSKLGYSPNTTNPKEIKAAYRELKKLMPNVLVFNSDFPANPYLAGEVSLGMLWNGSAYMARQEGAPIQIIWPEKGTIFWMDSISIPAGAKNIEAAHKMIDFLLRPENAAKIALEIGYPTPVKTAHDLLPKEFANDPSIYPPQSVIDNGEWQDEVGEASVLYDEYFQKLKVND | soluble
MGSDKIHHHHHHMSNELESNDVIKISVSHLALGMFVTAIDNAKGALSITNPGQIKTQDAINKLLKSGIKSVWVDVERSADNCGLKKTSAESFEPTKGNPLARKAKPSRDSKQAQVKVILNEAKNLVRKVLSETYEGKAVEVAPFEEIADRMIESVMDDADAMKCISALRTKDAYLLEHSVNVAFLLVTFGKHLGLDKTMLKEMAVGGILHDIGKIKVDNEVLHKPGKLTPEEFAHIKLHQVYAVEIMEQTQGLAQVSKDVCLMHHEKLDGRGYPKGLKGDEIPLHGRMSCIVDIFDALTATRCYKEAMSPAAAFKILISLTPFHLDQALVYEFIRCVGIYPVGSLVQLSDERIGIVWEAKDRDALHPVVKCFYSLKHKRYTEVTMVDLRKAEVNIERGVSPGTLDVDPTPFY | not soluble
MADYIYIDNSNLYIEGRRVSAVQQRLATNINEAMRDGILDHGYTISFGKLHEFLTGGDLTKIKRAALYGSRPPPNDSIWKSAERAGFELHLEDRNVANKEKKIDTGIATLLTKDAYKHGKPEEDLFVLVAGDKDYVPTLNELRADGYQVEVVFWSHAAKELKDAATRFISLDQHLEHLRF | soluble
MSDWTYSEGALDEAHWPQHYPACGGQRQSPINLQRTKVRYNPSLKGLNMTGYETQAGEFPMVNNGHTVQISLPSTMRMTVADGTVYIAQQMHFHWGGASSEISGSEHTVDGIRHVIEIHIVHYNSKYKSYDIAQDAPDGLAVLAAFVEVKNYPENTYYSNFISHLANIKYPGQRTTLTGLDVQDMLPRNLQHYYTYHGSLTTPPCTENVHWFVLADFVKLSRTQVWKLENSLLDHRNKTIHNDYRRTQPLNHRVVESNFPNQEYTLGSEFQAENLYFQ | soluble

Source: the DeepSol protein solubility set
